Measured values reported in the DeepSol protein solubility set.

Assay: soluble on expression in E. coli; label from the status in PepcDB or PDB records

Sequence	soluble on expression in E. coli
MSLSNPLNDLSKKYLTKGLNLASWAEANKITSANPKDWKYNEAIIKLQAEQGLLGIRFPIDLDLYVVDRLNVLNGTKKKIEIEPMLYTLMDSMNIWTKRYGLSLTIDYHAYDGSYNRASSKDPKFREAVSSLWRVVAQHFVKEKREDLFFELTNEPCLSLPEGEYIDQTDWTLLAQMMIDSIRRVDKTRPIIFGDTKWYSLDELIKNKPLKDPYVIYCFHMYDPFLFTHQGASWANMGTMKNIPFPYSPERWSTEFRDFGIVDGTPAWVKDLAKRYYQEGNKQFIKNRLAKVKNWAYEYNVPLICNEWGALPNTAKIEDLNAYFKTMGEIFEEMDISWQVWFGIMDSDYKLLPGMAEALHLKEGHHHHHH	soluble
MGSDKIHHHHHHMKASCYGSVGMAAMVAANLGEALKIFEQFIGSRCDAFKPELKQEQNDVYWSIHQPLKSFQLSSDATIFLLLGFIHIAKHLTGLSALGTVQLNMPEPIGFSKIKDKLGVSFLFDQKHNIWIFPKEYLMQPVLTADPMLAPLLKAQCKKDIDKLKLRSGWKAEISQVIKKLLINSQGEILKVKQVAQMMNMSERSLQRYLAIENTSFSALVDLTRKQYAQELLQNSLMSIESVALSLGYADTSHFTRAFKRWMGVTPKYYQTQLKLKNLEIRE	not soluble
MSRDTERYPVKHANSLWQIYKTVPFWKVVKNFVVIQLARYTPFVSVKNWLYRTFLKMDVGEKTAFALMVMPDIMFPERISVGRNSIIGYNTTILAHEYLIEEYRLGDVIIGDEVMVGANTTILPGVTIGDRAIIAAGTVVHKNVPPGAFVGGNPMQVIKQLEHHHHHH	not soluble
MTEHKSGFVSIIGRPNVGKSTFVNRVIGHKIAIMSDKAQTTRNKIQGVMTRDDAQIIFIDTPGIHKPKHKLGDYMMKVAKNTLSEIDAIMFMVNANEEIGRGDEYIIEMLKNVKTPVFLVLNKIDLVHPDELMPKIEEYQSYMDFTEIVPISALEGLNVDHFIDVLKTYLPEGPKYYPDDQISDHPEQFVVGEIIREKILHLTSEEIPHAIGVNVDRMVKESEDRVHIEATIYVERDSQKGIVIGKGGKKLKEVGKRARRDIEMLLGSKVYLELWVKVQRDWRNKVNFIRQIGYVEDQD	not soluble
MRAVRLVEIGKPLSLQEIGVPKPKGPQVLIKVEAAGVCHSDVHMRQGRFGNLRIVEDLGVKLPVTLGHEIAGKIEEVGDEVVGYSKGDLVAVNPLQGEGNCYYCRIGEEHLCDSPRWLGINFDGAYAEYVIVPHYKYMYKLRRLNAVEAAPLTCSGITTYRAVRKASLDPTKTLLVVGAGGGLGTMAVQIAKAVSGATIIGVDVREEAVEAAKRAGADYVINASMQDPLAEIRRITESKGVDAVIDLNYSEKTLSVYPKALAKQGKYVMVGLFGADLHYHAPLITLSEIQFVGSLVGNQSDFLGIMRLAEAGKVKPMITKTMKLEEANEAIDNLENFKAIGRQVLIP	soluble
MGSDKIHHHHHHMTGFYEFFSLPDRVEVVCPLCDGCATFTYAHVLQIEKKDAHLFENEQFEIKLFNQRFAHKWPCVLFFPPLFGAVSWREKFPEKYQGASTWEHRANSAFTDGTDLGLICCHQCMAKQKHQLEWPQDAFYSIEFKGHLLWAFNKMMMQQIRDYIQAKDRDAVFASEPIVIRHLPTVFKLAKNREGLVKKINKLIYRP	not soluble
MASENNGSRSDSESITAPKADSTVVEPRKIALITGITGQDGSYLTEFLLGKGYEVHGLIRRSSNFNTQRINHIYIDPHNVNKALMKLHYADLTDASSLRRWIDVIKPDEVYNLAAQSHVAVSFEIPDYTADVVATGALRLLEAVRSHTIDSGRTVKYYQAGSSEMFGSTPPPQSETTPFHPRSPYAASKCAAHWYTVNYREAYGLFACNGILFNHESPRRGENFVTRKITRALGRIKVGLQTKLFLGNLQASRDWGFAGDYVEAMWLMLQQEKPDDYVVATEEGHTVEEFLDVSFGYLGLNWKDYVEIDQRYFRPAEVDNLQGDASKAKEVLGWKPQVGFEKLVKMMVDEDLELAKREKVLVDAGYMDAKQQPLEHHHHHH	soluble
MSGARLHTLLPELTTRQPVMVVGAAVIDVIADAYALPWRGCDIELKQQSVNVGGCALNIAVALKRLGIEAGNALPLGQGVWAEIIRNRMAKEGLISLIDNAESDNGWCLALVEPDGERTFMSFSGVENQWNRQWLARLTVAPGNLLYFSGYQLASPCGELLVEWLEKLQDVTPFIDFCPRIGDIPDALLARIMACRPLVSLNRQEAEIAAERFALSAEITTLGKQWQEKFAAPLIVRLDKEGAWYFSNDASGCIPAFPTQVVDTIGAGDSHAGGVLAGLASGLPLADAVLLGNAVASWVVGHRGGDCAPTREELLLAHKNV	not soluble
MNQGEIVYQDDDDYYDESEIYDNYEEGAEFIEVNGQLVPHNPAQQNRPGTSSMIQQHNRSMEVNQGLVKDEPIDTSSHRVYVPPPRPVQRKPGPSTPGSSQYTVRNLSNLSGSPSMYDRQPASLPRTVQPMGLEMGNSEQRKVYIDMKDHVSHIRLKTKKKVFAPGQRKPCNCTKSQCLKLYCDCFANGEFCRDCNCKDCHNNIEYDSQRSKAIRQSLERNPNAFKPKIGIARGGITDIERLHQKGCHCKKSGCLKNYCECYEAKVPCTDRCKCKGCQNTETYRMTRYKNSGGAVSNTNALMSLTNASSTATPDSGPGSVVTDEHGDDYEDMLLSHKPKVEMDPRRFPWYYMTDEVVEAATMCMVAQAEEALNYEKVQTEDEKLINMEKLVLREFGRCLEQMITNTTELTQDLDAAPTDDIPGPSTSTS	not soluble
GMKTIDLADIQAFLYRESRLLDDKAWDAWLDCYRADAVFWMPSWDDADALVTDPQREISLIYYPNRQGLEDRVFRIKTERSSATVPDTRTSHNIANVERESADGDVHTVRFNWHTLSYRYKTVSSYFGMSRYAIDFSGDAPKIVSKYVVLKNDYINQLIDIYHI	soluble
GSHMDADGKLLTEGGENENLRKNASKKETSLFQGFKSYLPIAELAIENTERLNY	soluble
MAEANPRRGKMRFRRNAASFPGNLHLVLVLRPTSFLQRTFTDIGFWFSQEDFMPKLPVVMLSSVSDLLTYIDDKQLTPELGGTLQYCHSEWIIFRNAIENFALTVKEMAQMLQSFGTELAETELPDDIPSIEEILAIRAERYHLLKNDITAVTKEGKILLTNLEVPDTEGAVSSRLECHRQISGDWQTINKLLTQVHDMETAFDGFWEKHQLKMEQYLQLWKFEQDFQQLVTEVEFLLNQQAELADVTGTIAQVKQKIKKLENLDENSQELLSKAQFVILHGHKLAANHHYALDLICQRCNELRYLSDILVNEIKAKRIQLSRTFKMHKLLQQARQCCDEGECLLANQEIDKFQSKEDAQKALQDIENFLEMALPFINYEPETLQYEFDVILSPELKVQMKTIQLKLENIRSIFENQQAGFRNLADKHVRPIQFVVPTPENLVTSGTPFFSSKQGKKTWRQNQSNLKIEVVPDCQEKRSSGPSSSLDNGNSLDVLKNHVLNELIQTERVYVRELYTVLLGYRAEMDNPEMFDLMPPLLRNKKDILFGNMAEIYEFHNDIFLSSLENCAHAPERVGPCFLERKDDFQMYAKYCQNKPRSETIWRKYSECAFFQECQRKLKHRLRLDSYLLKPVQRITKYQLLLKELLKYSKDCEGSALLKKALDAMLDLLKSVNDSMHQIAINGYIGNLNELGKMIMQGGFSVWIGHKKGATKMKDLARFKPMQRHLFLYEKAIVFCKRRVESGEGSDRYPSYSFKHCWKMDEVGITEYVKGDNRKFEIWYGEKEEVYIVQASNVDVKMTWLKEIRNILLKQQELLTVKKRKQQDQLTERDKFQISLQQNDEKQQGAFISTEETELEHTSTVVEVCEAIASVQAEANTVWTEASQSAEISEEPAEWSSNYFYPTYDENEEENRPLMRPVSEMALLY	soluble
MAHHHHHHMTVKNAAKSGKYVWHAMPEEVRKSLKRGSVDETNGIKMGKKGTHATPSEPIYMEVPPDETQRKEKSPPRGMALPHVSTPNEKQPTPMPGETTNSGDVVVSQESGCVGVTHGTQSLSSSRTLKTKHVLHFRGPGWEKVLRKNKKGLESAFKKDVFEATGLEARRIEELKFEFASMLIVTFVVRRENDDEGTSKLHSDLQACAFPRTVLLYRN	soluble
MSFTPANRAYPYTRLRRNRRDDFSRRLVRENVLTVDDLILPVFVLDGVNQRESIPSMPGVERLSIDQLLIEAEEWVALGIPALALFPVTPVEKKSLDAAEAYNPEGIAQRATRALRERFPELGIITDVALDPFTTHGQCGILDDDGYVLNDVSIDVLVRQALSHAEAGAQVVAPSDMMDGRIGAIREALESAGHTNVRVMAYSAKYASAYYGPFRDAVGSASNLGKGNKATYQMDPANSDEALHEVAADLAEGADMVMVKPGMPYLDIVRRVKDEFRAPTFVYQVSGEYAMHMGAIQNGWLAESVILESLTAFKRAGADGILTYFAKQAAEQLRRGR	soluble
MGSDKIHHHHHHMLKQKTLKDSFSLSGKGLHTGLDLTVTFNPAPDNHGYKIQRIDLEGQPTIDAVADNVTETTRGTVLSKNGVKVSTVEHGMAALYALGIDNCLIQVNGPEFPILDGSAQYYVQEIERVGTEEQSAVKDFYIIKSKIEFRDESTGSSIIVLPDENFSLNVLVSYDSTIIPNQFATLEDMHNFKDEVAASRTFVFVREIEPLLSAGLIKGGDLDNAIVIYERKMSQESYDKLADVMGVPHMDADQLGYINHKPLVWPNECARHKLLDVIGDLALIGKPIKGRIIATRPGHTINNKFARQMRKEIRLHEIQAPTYDCNREPVMDVNRIRELLPHRYPFQLVDKVIEMGASYIVGIKNITANEPFFQGHFPQEPVMPGVLQIEAMAQVGGLLVLNSVDEPERYSTYFMKIDGVKFRQKVVPGDTLLFRVELLAPIRRGISTMKGYAFVGEKVVCEAEFMAQIVKNK	not soluble
ADTPGEATPPPRKKKDIRDYNDADMARLLEQWEKDDDIEEGDLPEHKRPSAPIDFSKLDPGKPESILKMTKKGKTLMMFVTVSGNPTEKETEEITSLWQGSLFNANYDVQRFIVGSDRAIFMLRDGSYAWEIKDFLVSQDRCAEVTLEGQMYPGKGGGSKEKNKTKPEKAKKKEGDPKPRASKEDNRAGSRREDL	soluble
SLPHCETLLLEPIEGVLRITLNRPQSRNAMSLAMVGELRAVLAAVRDDRSVRALVLRGADGHFCAGGDIKDMAGARAAGAEAYRTLNRAFGSLLEEAQAAPQLLVALVEGAVLGGGFGLACVSDVAIAAADAQFGLPETSLGILPAQIAPFVVRRIGLTQARRLALTAARFDGREALRLGLVHFCEADADALEQRLEETLEQLRRCAPNANAATKALLLASESGELGALLDDAARQFAEAVGGAEGS	not soluble
MGSDKIHHHHHHAQSLKDLLNKDNISKVVNAITGTPETIDMTGTWTYSGSAVEFESDNLLMKAGGAAAATMAENKLNEQLSKVGIKEGQMSFTFNADSTFTSTVGKKKLSGTYSYNASTKQVDLKYLKLLNLHAKVNCTSNSMDLLFNSDKLLKLMTFLGSKTNSTALKTVSSLAENYDGMMLGFGLKK	not soluble
MAHHHHHHMGTLEAQTQGPGSMQKNMVETEPVQGCRDFPPEAMRCRRHLFDVFHATAKTFGFEEYDAPVLESEELYIRKAGEEITEQMFNFITKGGHRVALRPEMTPSLARLLLGKGRSLLLPAKWYSIPQCWRYEAITRGRRREHYQWNMDIVGVKSVSAEVELVCAACWAMRSLGLSSKDVGIKVNSRKVLQTVVEQAGVTSDKFAPVCVIVDKMEKIPREEVEAQLAVLGLEPTVVDAITTTLSLKSIDEIAQRVGEEHEAVKELRQFFEQVEAYGYGDWVLFDASVVRGLAYYTGIVFEGFDREGKFRALCGGGRYDNLLTTYGSPTPIPCAGFGFGDCVIVELLQEKRLLPDIPHVVDDVVIPFDESMRPHALAVLRRLRDAGRSADIILDKKKVVQAFNYADRVGAVRAVLVAPEEWERGEVQVKMLREGTGKEEGGAERGFAVPLDRLV	soluble
